Experimental findings from the supplement of paper PMC12042874 are described below.

± gives the uncertainty stated by the source.

The nature of the data set: amyloid nucleation score (Sup35N fusion, yeast selection) (log enrichment); library NNK3; higher = more nucleation; inactive = no reads after selection. The method in brief: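 The nucleation score is a DiMSum log enrichment of output over input reads, centred on the mode score of non-aggregating sequences. Sequences under 100 input reads were excluded, and reads came from Illumina sequencing of plasmid inserts. Psi-negative yeast expressing Sup35N fused to peptides of 20 random codons were induced with 100 μM copper sulfate for 24 hours and grown 7 days at 30°C on medium lacking adenine and uracil. Random libraries had three technical output replicates.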
Consider CCNDWR, for which the amyloid nucleation score entry was “inactive”.

Take CCRLDDIRQ: the amyloid nucleation score entry is “inactive”. To CCRSWRSYSTVVFICGFLYW belongs “inactive”; to CCRVRTS, “inactive”. On to CCSGLAMAFRFYASYSGAIY, for which the amyloid nucleation score result is “inactive”. Take CCSSRMYLEGCPSLRLMEHI: the amyloid nucleation score entry was “inactive”. To CDIISMALEPQVCTEYDLQR belongs 1.38 ± 0.1.

In the case of CDMSCMTKSCPPSYPN, the amyloid nucleation score is -0.395 ± 0.8. CDRTIMRSYDPAL showed an amyloid nucleation score of 1.16 ± 0.099.

As for CDSYKVYRVLNKQGWFCRGS, the amyloid nucleation score entry is “inactive”. On to CDTSCWLLSTPLADWTIAFN, for which the amyloid nucleation score entry is “inactive”. Next, CELAKLVRNDSFRKDNQGYS: “inactive”; CELYHMNRDF: “inactive”.

Turning to CEYAYFGMDYLLEAGSKSDY, the amyloid nucleation score result is “inactive”.

As for CFAYG, the amyloid nucleation score was -0.533 ± 0.4. Next, CFCFLIM: 1.05 ± 0.21. To CFDAYIAYLSMRCWYPKNNC belongs 0.015 ± 0.71. As for CFFINRRTLKGLT, the amyloid nucleation score result is “inactive”.

In the case of CFLSGWTLTVSVLLVDYRKL, the amyloid nucleation score result is “inactive”. Consider CFMHPADIPSMAVVVYLCAG, for which the amyloid nucleation score entry is “inactive”. Consider CFNGRCARLYISIIQVIELS, for which the amyloid nucleation score result is “inactive”. To CFWFNHSNRRGQFFH belongs -0.286 ± 0.77; to CFYGDFSSILSRKVYDYYIR, “inactive”; to CGCCHVVVNSWW, 2.65 ± 0.062. To CGCGWVLWPYKYRSDWLGGK belongs “inactive”; to CGRLHDVG, “inactive”. For CGTCSDYGYHFGCTDRGVDC, the amyloid nucleation score entry is “inactive”.

As to CGVYPYPWVVMFTDCKMNRW, the amyloid nucleation score entry was “inactive”. CGYKEVGVPASRRMNS: the amyloid nucleation score entry was “inactive”.

On to CHHLRWDNCVRREELDFTCV, for which the amyloid nucleation score result is “inactive”.

With CHKVLWSSVKTVDFMLSNMG, the amyloid nucleation score entry is “inactive”.

Take CHRRLML: the amyloid nucleation score result was “inactive”.

In turn, CHVLWGCCIRSQVCCSAYNV yielded an amyloid nucleation score of 2.06 ± 0.073.

Turning to CIFYDSLVDWDHHYSHKGWH, the amyloid nucleation score result is “inactive”. For CIGGWDIKGKQ, the amyloid nucleation score entry was “inactive”. CIRVKHFCISHEDKR: the amyloid nucleation score entry is “inactive”. CIRVTMSNMMVESWVYGDKP registered an amyloid nucleation score of 0.586 ± 0.15. To CIVYSFSRGFTSNGGEGYRW belongs 0.67 ± 0.22; to CIYWLEF, 1.57 ± 0.084. For the substance CKDSDSTIPRMLLLRLKTEL, the amyloid nucleation score entry was “inactive”. CKIGYPTYNVGVIVSLVVRM displayed an amyloid nucleation score of 1.61 ± 0.066.

Regarding CKVHECHVPAG, the amyloid nucleation score result is “inactive”.

Regarding CKVYGKSLVMAYN, the amyloid nucleation score entry is “inactive”. As for CLCSMHLRWRSSNWRGYEHF, the amyloid nucleation score turned out to be 0.474 ± 0.31. To CLFRYSEYSVGKLMGYCDCG belongs “inactive”; to CLFSHYLV, “inactive”; to CLGADCVAHFSYFHA, “inactive”. Regarding CLKVSTKCFW, the amyloid nucleation score came out at 0.097 ± 0.52. Next, CLLCGSRHFRHRLGFVSYRI: “inactive”; CLLYSYCCPRKIVN: “inactive”. To CLPVARGQMR belongs “inactive”; to CLQSARYKIFCFFYFDVLSH, “inactive”.

For the substance CLSLDQWWLHRYDHLVLGET, the amyloid nucleation score result was “inactive”. To CLSLKNERHQVFMSRIGNRA belongs “inactive”.

Regarding CLVTGWISSILNWFLYWNWE, the amyloid nucleation score entry was “inactive”. Consider CLVWG, for which the amyloid nucleation score result was “inactive”.

For the substance CLWFISRQFDLYHRVMGNRS, the amyloid nucleation score result is “inactive”. To CLYVSLS belongs “inactive”; to CMDKFWCVVYA, -0.416 ± 1.5; to CMFNGGDWNHNVRELGRQSS, “inactive”. CMFRLMIPSIKTNAISIALC had an amyloid nucleation score of 0.068 ± 0.9. Substance CMHGRGMWMNIACAFSCRQF gave an amyloid nucleation score of 0.063 ± 0.69. On to CMIFGVSLAYVCGCSLYGVG, for which the amyloid nucleation score entry is “inactive”. On to CMLCKPWSSQVNSY, for which the amyloid nucleation score entry was “inactive”. To CMLDKSAIIMTRMECIVLSY belongs “inactive”. Next, CMMWNRGFT: “inactive”; CMRGWNSRVE: “inactive”. Turning to CMVLRYVTVVSGMSQAKRMY, the amyloid nucleation score entry was “inactive”. Next, CNCVAKDKVMLHVSRRRADF: 0.201 ± 0.72. With CNDGSHCLGYY, the amyloid nucleation score entry is “inactive”.

For CNDLVYFMMFVLYLVTRWET, the amyloid nucleation score result was “inactive”. With CNGFFCGMCCYTKRKMKYAI, the amyloid nucleation score result is “inactive”. Next, CNISSFNT: “inactive”; CNKGSNTYVVDYAVGNGH: “inactive”; CNLALFTRGWGEYMIVSCCK: “inactive”.

Take CNLRMCNGA: the amyloid nucleation score result was “inactive”.

Take CNMRVERLMSLFSL: the amyloid nucleation score entry was “inactive”. To CNNLFFSWLKFMLIGIMGH belongs “inactive”; to CNPLFTYNKPSVDKSV, “inactive”; to CNSYTYVEGSNYNGSSQGLD, “inactive”. Next, CNVASSNFRCHYSQMRRFCE: “inactive”. To CNVFWVPTVRLIFKMYKVSR belongs 0.417 ± 0.36; to CPAYMYCTGMSVNTCPGKGG, “inactive”; to CPESLWNKSYVYAGALTFLR, “inactive”. As for CPFPRLSICVACNEYDNQLS, the amyloid nucleation score entry is “inactive”. Turning to CPTCWRYVNIRYSI, the amyloid nucleation score entry was “inactive”. To CQHSRRLKGAAYKSCQMYRR belongs “inactive”; to CQWANY, -0.508 ± 1; to CQYPCVMLCQC, 0.504 ± 0.19. To CRGLLYISVNYNMILFQHTR belongs “inactive”. Next, CRRNTVFMNRVYNNGLFEEC: “inactive”. On to CRSQMHWLYSQRQIMPVLRS, for which the amyloid nucleation score entry is “inactive”. Turning to CRVSGMDICLWSMMCDSVGS, the amyloid nucleation score entry was “inactive”. To CRYYNSC belongs “inactive”; to CSCWFFLVHNFNNIYRILWK, “inactive”. Next, CSFSISSSGVLWRGKERPIG: 1.05 ± 0.18; CSGFRVNSSTVIGYLSILLK: “inactive”.

CSGGGGKRGLLSTLTEPMRR: the amyloid nucleation score result is “inactive”.

The substance CSGISSNGGLLTLGCCFCRG registered an amyloid nucleation score of 2.96 ± 0.076. To CSILACSA belongs “inactive”.

As to CSIYNCMSHHKRVTG, the amyloid nucleation score was 1.2 ± 0.15.

As to CSLRPNSERTSVIYNALHVN, the amyloid nucleation score result was “inactive”. For the substance CSMPWLRSSTGGGVLLIEKS, the amyloid nucleation score result is “inactive”. Next, CSPKPNKKAAMYKSAYNPGM: 0.629 ± 0.17; CSRIRLMGFDWLAPIPHA: “inactive”; CSTYSRLRYIAYCWVVRP: “inactive”.

For CSVFPQVRLCPRSSANQELD, the amyloid nucleation score entry was “inactive”.

As to CSVLDKEVFGGTSQDSDSYL, the amyloid nucleation score result was “inactive”.

Regarding CSWRNRYCMLRRELFGAWRV, the amyloid nucleation score result is “inactive”. For the substance CSYRCYSLGCNMQIV, the amyloid nucleation score result was “inactive”. With CTGYDCVGMGADFCARMWHC, the amyloid nucleation score entry is “inactive”.

For CTKKM, the amyloid nucleation score entry is “inactive”. Turning to CTLIAKHNQA, the amyloid nucleation score result was “inactive”.

CVADHLSCISTRGNCCYMSG came in with an amyloid nucleation score of 0.473 ± 0.26. Next, CVAYSRTEVRFYRYEHLWV: 1.18 ± 0.12; CVDQT: “inactive”; CVFRYLVHHERMSYILNAGC: “inactive”.

Consider CVFYCSKLWIRYNNVMMISS, for which the amyloid nucleation score was 0.831 ± 0.1. To CVGHVRSYYGMQIPKGLKLS belongs “inactive”; to CVGVF, “inactive”; to CVLSVEYGHNQEDAITMRCE, “inactive”. As for CVPGYGYRLNYSL, the amyloid nucleation score entry is “inactive”. CVPNWVVCRLSIYKF: the amyloid nucleation score entry is “inactive”. Next, CVSGDCVMIMFYLFSPVAVV: “inactive”; CVSPDCMLMGAHDYGVERWL: “inactive”. Next, CVTSVVFRFRQHGYTRKGMA: 1.27 ± 0.15; CVVNGDLVASLKSLFLGWCL: “inactive”. Next, CVYGPRFNF: 1.94 ± 0.067. For CWAYVMRT, the amyloid nucleation score result is “inactive”.

Consider CWEFYVVLYRLLGICKIRVL, for which the amyloid nucleation score entry is “inactive”. For CWFRLYQRNARVVDNFVNHG, the amyloid nucleation score entry is “inactive”. In turn, CWQFK registered an amyloid nucleation score of 0.22 ± 0.9.
